Results as given in publication PMC10318394.

Columns and labels:
[1] = target: T1, phospholamban (PLN), wild type, in mouse heart (mouse), P61014; test: SDS-PAGE and western blot; conditions: remark: other sources report otherwise
T1 chain: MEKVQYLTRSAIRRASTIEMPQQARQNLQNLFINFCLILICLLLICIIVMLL

[2] = target: T2, synthetic full-length PLN, P61014; test: SDS-PAGE; conditions: remark: other sources report otherwise
T2 chain: T1 chain

B1: phospholamban (PLN), wild type, in mouse heart, P61014 1-52 (natural protein)
chain: T1 chain
**Q.** For B1, which stoichiometry N [1] is on record?
**A.** Its stoichiometry N is 5.

B2: synthetic full-length PLN, P61014 1-52 (natural protein)
chain: T1 chain
**Q.** How did the stoichiometry N [2] turn out when B2 was run?
**A.** Its stoichiometry N is 5.
